Results reported in publication PMC10716038, “Talin and kindlin use integrin tail allostery and direct binding to activate integrins” (Nature Structural & Molecular Biology, 2023).
Positions count from the first letter of the chain named. In names and notes the source's numbering stands. One block for each molecule: values may come before it.

What was measured:
[1] = target: integrin β1A cytoplasmic tail (β1-CT), recombinant (UniProt P05556); experiment: NMR titration; isotope-labelled β1-CT observed; TLN1-F3 and ΔKIND2 (wild type or K402E / Y13A) added together, ternary complex; 20 mM Tris, 200 mM NaCl, 1 mM DTT, pH 7.5, 298 K
[2] = target: ATTO 488-labelled β1-CT (488–β1-CT) (UniProt P05556); experiment: MST; ATTO 488-labelled β-CT peptide (50–200 nM) held constant, one unlabelled protein titrated; 20 mM Tris pH 7.5, 200 mM NaCl, 1 mM TCEP, 0.05% Tween-20; apparent affinities (near-saturation only)
[3] = target: T1, ATTO 488-labelled β3-CT (488–β3-CT) (UniProt O54890 741-787, ATTO 488 at the N terminus); experiment: MST; as a7, with a second unlabelled protein present at near-saturating concentration (named in the quantity or in the printed words); apparent constants (Kd,app*); settings: both partners purified
T1 construct: integrin β3 cytoplasmic tail; source: synthetic peptide (MPIB Core Facility)
T1 peptide (looked up): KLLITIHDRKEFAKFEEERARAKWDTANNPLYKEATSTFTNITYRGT

Molecule: KIND2 lacking the flexible loop in F1 and the PH domain (ΔKIND2) (domain or fragment)
decrease of the signal intensities of the membrane-proximal α-helix of β1-CT (H758–K770), 1:0.8 against 1:0.2, with TLN1-F3 added together [1]: 50%

B1: kindlin-2 (KIND2) (natural protein, UniProt Q8CIB5 1-680, looked up)
chain: MALDGIRMPDGCYADGTWELSVHVTDLNRDVTLRVTGEVHIGGVMLKLVEKLDVKKDWSDHALWWEKKRTWLLKTHWTLDKCGIQADAKLQFTPQHKLLRLQLPNMKYVKVKVNFSDRVFKAVSDICKTFNIRHPEELSLLKKPRDPTKKKKKKLDDQSEDEALELEGPLIMPGSGSIYSSPGLYSKTMTPTYDAHDGSPLSPTSAWFGDSALSEGNPGILAVSQPVTSPEILAKMFKPQALLDKAKTNQGWLDSSRSLMEQDVKENEALLLRFKYYSFFDLNPKYDAIRINQLYEQAKWALLLEEIECTEEEMMMFAALQYHINKLSIMTSENHLNNSDKEVDEVDAALSDLEITLEGGKTSTILGDITSIPELADYIKVFKPKKLTLKGYKQYWCTFKDTSISCYKSREESSGTPAHQLNLRGCEVTPDVNISGQKFNIKLLIPVAEGMNEIWLRCDNEKQYAHWMAACRLASKGKTMADSSYNLEVQNILSFLKMQHLNPDPQLIPDQITTDVNPECLVSPRYLKKYKSKQITARILEAHQNVAQMSLIEAKMRFIQAWQSLPEFGITHFIARFQGGKREELIGIAYNRLIRMDASTGDAIKTWRFSNMKQWNVNWEIKMVTVEFADEVRLSFICTEVDCKVVHEFIGGYIFLSTRAKDQNESLDEEMFYKLTSGWV
notes: kindlin-2 (KIND2) without the deletions of ΔKIND2; In FC-RDA a copy labelled with Alexa 647 (647–KIND2) was the reporter; also called 647–KIND2; source: E. coli Rosetta, purified (IMAC, SEC); not shown: His10, N-terminal, cleaved; SUMO, N-terminal, cleaved
apparent Kd (Kd,app*) in the presence of THD1 [3]: 54 µM
apparent Kd (Kd,app*) in the presence of THD1 K402E [3]: 16 µM
apparent Kd (Kd,app*) in the presence of THD2 [3]: 27 µM
apparent Kd (Kd,app*) in the presence of TLN1-F3 [3]: 120 µM
apparent Kd (Kd,app*) in the presence of TLN2-F3 [3]: 47 µM

B2: KIND2^Y13A (natural protein, UniProt Q8CIB5 1-680, looked up)
chain: B1 chain with Y13A
notes: kindlin-2 (KIND2) with Y13A; In FC-RDA a copy labelled with Alexa 647 was the reporter; also called 647–KIND2^Y13A; source: E. coli Rosetta, purified (IMAC, SEC); not shown: His10, N-terminal, cleaved; SUMO, N-terminal, cleaved
apparent Kd (Kd,app*) in the presence of THD1 [3]: 21 µM

B3: talin-1 head domain (THD1) (domain or fragment, UniProt P26039 1-405, looked up)
chain: MVALSLKISIGNVVKTMQFEPSTMVYDACRMIRERIPEALAGPPNDFGLFLSDDDPKKGIWLEAGKALDYYMLRNGDTMEYRKKQRPLKIRMLDGTVKTIMVDDSKTVTDMLMTICARIGITNHDEYSLVRELMEEKKDEGTGTLRKDKTLLRDEKKMEKLKQKLHTDDELNWLDHGRTLREQGVEEHETLLLRRKFFYSDQNVDSRDPVQLNLLYVQARDDILNGSHPVSFDKACEFAGFQCQIQFGPHNEQKHKAGFLDLKDFLPKEYVKQKGERKIFQAHKNCGQMSEIEAKVRYVKLARSLKTYGVSFFLVKEKMKGKNKLVPRLLGITKECVMRVDEKTKEVIQEWSLTNIKRWAASPKSFTLDFGDYQDGYYSVQTTEGEQIAQLIAGYIDIILKKKKS
notes: talin-1 (TLN1) head domain (F0-F3), residues 1-405; In FC-RDA a copy labelled with ATTO 565 (565–THD1) was the reporter; also called 565–THD1; source: E. coli (DE3) Rosetta 2, purified (IMAC, SEC); not shown: His10, N-terminal, cleaved; SUMO, N-terminal, cleaved
apparent Kd (Kd,app*) in the presence of KIND2 [3]: 102 µM
apparent Kd (Kd,app*) in the presence of KIND2 Y13A [3]: 218 µM

The next lines start with the values.

Kd of the kindlin contribution (fit of concentrations up to 5 µM) [2]: 2.9 µM
Kd of the talin contribution (fit of concentrations above 5 µM) [2]: 16 µM
Molecule: TLN1-F3–ΔKIND2^Y13A fusion protein

decrease of the signal intensities of the membrane-proximal α-helix of β1-CT (H758–K770), 1:0.8 against 1:0.2, with TLN1-F3 K402E added together [1]: 10%
decrease of the signal intensities of the membrane-proximal α-helix of β1-CT (H758–K770), 1:0.8 against 1:0.2, with TLN1-F3 added together [1]: 30%
Molecule: ΔKIND2^Y13A (domain or fragment)

apparent Kd (Kd,app*) in the presence of KIND2 [3]: 76 µM
B4: THD1^K402E (domain or fragment, UniProt P26039 1-405, looked up)
chain: B3 chain with K402E
notes: talin-1 (TLN1) head domain, residues 1-405, with K402E; In FC-RDA a copy labelled with ATTO 565 was the reporter; also called 565–THD1^K402E; source: E. coli (DE3) Rosetta 2, purified (IMAC, SEC); not shown: His10, N-terminal, cleaved; SUMO, N-terminal, cleaved
